Test results published in paper PMC2734569, “Functional mapping of the fission yeast DNA polymerase δ B-subunit Cdc1 by site-directed and random pentapeptide insertion mutagenesis” (BMC Molecular Biology, 2009).
Changes are numbered by the printed parent chain. Blank lines part the entries; values can stand above or below the binder they belong to.

Tests used:
[1] = biological target: Cdc1-J17 (Schizosaccharomyces pombe) (UniProt P87324); test: two-hybrid; LexA-Cdc1 bait (pBTM116 or pBTM116BN) with Gal4-Pol3 prey and co-expressed c-myc-tagged Cdc27 (pAA-Cdc27) in S. cerevisiae CTY10-5d; ONPG liquid culture beta-galactosidase assay, mean of triplicates, as percent of wild-type Cdc1
[2] = biological target: T1, Cdc1-E9 (Schizosaccharomyces pombe, UniProt P87324 1-462, Tyr-GlyGlyTyrProTyr-Gly); test: as above; details: partners not purified
T1 construct: Cdc1, S. pombe, with a pentapeptide inserted after residue 124; source: yeast two-hybrid fusion, in S. cerevisiae CTY10-5d
T1 sequence (looked up): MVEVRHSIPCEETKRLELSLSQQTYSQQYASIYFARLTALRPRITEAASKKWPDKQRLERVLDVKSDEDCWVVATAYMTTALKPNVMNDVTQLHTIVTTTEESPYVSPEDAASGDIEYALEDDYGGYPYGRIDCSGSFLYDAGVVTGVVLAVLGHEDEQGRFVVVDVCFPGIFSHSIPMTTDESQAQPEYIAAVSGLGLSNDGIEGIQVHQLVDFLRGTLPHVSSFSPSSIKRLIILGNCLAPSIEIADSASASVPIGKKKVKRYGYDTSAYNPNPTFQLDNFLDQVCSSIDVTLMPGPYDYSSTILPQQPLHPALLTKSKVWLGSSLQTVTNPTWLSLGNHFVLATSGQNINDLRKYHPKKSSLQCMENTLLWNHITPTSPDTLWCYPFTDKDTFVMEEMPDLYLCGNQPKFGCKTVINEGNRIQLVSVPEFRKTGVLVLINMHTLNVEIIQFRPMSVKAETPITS

[3] = biological target: T2, Cdc1-J4 (Schizosaccharomyces pombe, UniProt P87324 1-462, Ile-GlyValProArgIle-Asp); test: as above; details: partners not purified
T2 construct: Cdc1, S. pombe, with a pentapeptide inserted after residue 127; also called J5; J13; source: yeast two-hybrid fusion, in S. cerevisiae CTY10-5d
T2 sequence (looked up): T1 sequence (looked up) with G126R, Y127I, P128G, Y129V, G130P

[4] = biological target: T3, Cdc1-J21 (Schizosaccharomyces pombe, UniProt P87324 1-462, Leu-GlyValProGlnLeu-Asp); test: as above; details: partners not purified
T3 construct: Cdc1, S. pombe, with a pentapeptide inserted after residue 275; source: yeast two-hybrid fusion, in S. cerevisiae CTY10-5d
T3 sequence (looked up): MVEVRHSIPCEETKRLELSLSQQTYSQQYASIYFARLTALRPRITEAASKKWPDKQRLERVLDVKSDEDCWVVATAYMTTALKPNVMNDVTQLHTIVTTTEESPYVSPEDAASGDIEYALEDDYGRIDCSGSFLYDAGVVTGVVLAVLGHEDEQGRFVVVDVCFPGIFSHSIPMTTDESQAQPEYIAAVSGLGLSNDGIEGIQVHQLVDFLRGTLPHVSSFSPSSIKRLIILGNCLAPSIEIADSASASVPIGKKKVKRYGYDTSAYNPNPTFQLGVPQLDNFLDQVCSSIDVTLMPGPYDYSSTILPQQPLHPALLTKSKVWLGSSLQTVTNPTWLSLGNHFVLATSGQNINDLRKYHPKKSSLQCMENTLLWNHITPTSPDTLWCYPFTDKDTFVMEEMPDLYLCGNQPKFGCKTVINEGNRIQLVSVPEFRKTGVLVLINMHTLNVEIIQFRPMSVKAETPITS

[5] = biological target: Cdc1-J17 (Schizosaccharomyces pombe) (UniProt P87324); test: two-hybrid; LexA-Cdc1 bait (pBTM116 or pBTM116BN) with Gal4 activation domain-Cdc27 prey (pGAD2F-Cdc27) in S. cerevisiae CTY10-5d; ONPG liquid culture beta-galactosidase assay, mean of triplicates, as percent of wild-type Cdc1

- two-hybrid beta-galactosidase activity, % of wild-type Cdc1 [1]: 2%
- two-hybrid beta-galactosidase activity, % of wild-type Cdc1 [2]: 24%
- two-hybrid beta-galactosidase activity, % of wild-type Cdc1 [3]: 36%
- two-hybrid beta-galactosidase activity, % of wild-type Cdc1 [4]: < 1%
B1: Pol3 (fission yeast DNA polymerase delta catalytic subunit) (natural protein, Schizosaccharomyces pombe, UniProt P30316 1-1086, looked up)
chain: MTDRSSNEGVVLNKENYPFPRRNGSIHGEITDVKRRRLSERNGYGDKKGSSSKEKTSSFEDELAEYASQLDQDEIKSSKDQQWQRPALPAINPEKDDIYFQQIDSEEFTEGSVPSIRLFGVTDNGNSILVHVVGFLPYFYVKAPVGFRPEMLERFTQDLDATCNGGVIDHCIIEMKENLYGFQGNEKSPFIKIFTTNPRILSRARNVFERGEFNFEELFPVGVGVTTFESNTQYLLRFMIDCDVVGMNWIHLPASKYQFRYQNRVSNCQIEAWINYKDLISLPAEGQWSKMAPLRIMSFDIECAGRKGVFPDPSIDPVIQIASIVTQYGDSTPFVRNVFCVDTCSQIVGTQVYEFQNQAEMLSSWSKFVRDVDPDVLIGYNICNFDIPYLLDRAKSLRIHNFPLLGRIHNFFSVAKETTFSSKAYGTRESKTTSIPGRLQLDMLQVMQRDFKLRSYSLNAVCSQFLGEQKEDVHYSIITDLQNGTADSRRRLAIYCLKDAYLPQRLMDKLMCFVNYTEMARVTGVPFNFLLARGQQIKVISQLFRKALQHDLVVPNIRVNGTDEQYEGATVIEPIKGYYDTPIATLDFSSLYPSIMQAHNLCYTTLLDSNTAELLKLKQDVDYSVTPNGDYFVKPHVRKGLLPIILADLLNARKKAKADLKKETDPFKKAVLDGRQLALKVSANSVYGFTGATNGRLPCLAISSSVTSYGRQMIEKTKDVVEKRYRIENGYSHDAVVIYGDTDSVMVKFGVKTLPEAMKLGEEAANYVSDQFPNPIKLEFEKVYFPYLLISKKRYAGLFWTRTDTYDKMDSKGIETVRRDNCPLVSYVIDTALRKMLIDQDVEGAQLFTKKVISDLLQNKIDMSQLVITKALSKTDYAAKMAHVELAERMRKRDAGSAPAIGDRVAYVIIKGAQGDQFYMRSEDPIYVLENNIPIDAKYYLENQLSKPLLRIFEPILGEKASSLLHGDHTRTISMAAPSVGGIMKFAVKVETCLGCKAPIKKGKTALCENCLNRSAELYQRQVAQVNDLEVRFARLWTQCQRCQGSMHQDVICTSRDCPIFYMRIAEHKKLQQSVDLLKRFDEMSW
notes: DNA polymerase delta catalytic subunit Pol3, S. pombe; prey plasmid named pACT-Pol3 in the results and pGAD2F-Pol3 in the methods; also called Gal4-Pol3; pACT-Pol3; source: yeast two-hybrid fusion, in S. cerevisiae CTY10-5d

- two-hybrid beta-galactosidase activity, % of wild-type Cdc1 [5]: < 1%
B2: Cdc27 (fission yeast DNA polymerase delta C-subunit) (natural protein, Schizosaccharomyces pombe, UniProt P30261 1-372, looked up)
chain: MEEWRNFLDIKVINESSLVTVDNLSLQLDISSEKAQEYLNMFYQGNDFLYPIYLIHGQPIDDEINLEIDEESQPISNFPVLQYILCDKSSLQEKQSRLKSGYKTVIFALSSAPLSDFDELLPAVYEIREKDVLYKKEDADKYGFIFNENSVPRVLKKAPSTHSPQLSVPSKTSTIDKTDTRSTEKTKGKDIFSNARNQKGNSSRKNKKAPLENHKEKEPLLPKEEKLSEQAKRERDDLKNIMQLEDESVSTTSVHDSEDDNLDSNNFQLEIGTEAKSAAPDEPQEIIKSVSGGKRRGKRKVKKYATTKDEEGFLVTKEEEVWESFSEDENISTGTSNVVRNKPTTVNIATKKKNTAQSKPQQKSIMSFFGKK
notes: DNA polymerase delta C-subunit Cdc27, S. pombe; prey plasmid pGAD2F-Cdc27; also called pGAD2F-Cdc27; source: yeast two-hybrid fusion, in S. cerevisiae CTY10-5d
